Results on six molecules are retold here after patent publication US9012606B2, “In vivo half life increased fusion protein or peptide maintained by sustained in vivo release, and method for increasng in vivo half-life using same” (Alteogen, Inc., priority 2009, dated 2015).

Substitutions are numbered along the chain they refer to. Names may count otherwise.

A short description of data set [1]: Pharmacokinetics of hGH and hGH/alpha-1 antitrypsin fusions (serum ELISA). The data set is classed as in vivo. The following applies: Sprague-Dawley rats, subcutaneous, 200 μg/kg (Scitropin control). On the procedure: An anti-human growth hormone monoclonal antibody (Medix Biochemica, Finland) was diluted to a concentration of 1-5 μg/mL in phosphate buffered saline (PBS) and the dilution was aliquoted in an amount of 100 μL/well onto a 96-well plate (Nunc, Denmark) and incubated at room temperature for 15-18 hrs. After the antibody remaining suspended was removed, PBS containing 1% bovine serum albumin was plated in an amount of 250 μL/well and incubated at room temperature for 2 hours. The plates were washed three times with wash buffer (0.05% Tween 20, PBS) and the solution was aspirated. Samples were diluted in PBS containing 1% bovine serum albumin and added to the 96-well plates before incubation at room temperature for 2 hrs. The 96-well plates were washed five times with wash buffer and 100 μL of the human growth hormone monoclonal antibody-biotin conjugate prepared using sulfo-NHS-biotin (Pierce biotechnology, U.S.A.) was added to each well of the 96-well plates and then incubated at room temperature for 2 hrs. The plates were washed five times with wash buffer and incubated with streptabidin-HRP at room temperature for 30 min. Again, the plates were washed five times with wash buffer and reacted with 100 μL of a mixture of TMB (3,3′,5,5′-tetramethylbenzidine) and hydrogen peroxide per well for 30 min in a dark place. To each well was added 100 μL of 1 M sulfuric acid to terminate the reaction, followed by measuring absorbance at 450 nm on a VersaMax microplate reader (Molecular Device, U.S.A.). Values for each sample were calculated by regression analysis after a standard curve was plotted for a reference material.
Sprague-Dawley rats were used as experimental animals and three of them were administered with human growth hormone while five rats were assigned to each of the fusion-administered groups. The human growth hormone/alpha-1 antitrypsin fusion [T109wt: α1AT/hGH], the human growth hormone/alpha-1 antitrypsin monovariant fusion [T109: α1AT(P357N)/hGH], and the human growth hormone/alpha-1 antitrypsin divariant fusion [T109T: α1AT(P357N, S359T)/hGH], all prepared in Examples 1-3, were subcutaneously injected at a dose of 720 μg/kg into respective groups of Sprague-Dawley rats. The samples were diluted in PBS before injection. Blood samples were taken at 0, 1, 2, 4, 8, 12, 16, 24, 30 and 48 hrs after the injection, and centrifuged to obtain sera. For a control, Scitropin (SciGen, Singapore), a kind of human growth hormone, was subcutaneously injected at a dose of 200 μg/kg. PBS was used as a diluent. Blood samples were taken at 0, 0.33, 1, 2, 5, 8, 12, 18, 24, 30 and 48 hrs after the injection, and centrifuged to obtain sera. Each sample was analyzed in the same manner as the enzyme immunoassay of Test Example 1.
(ELISA stands for enzyme-linked immunosorbent assay.)

Data set [2] can be described thus: In vivo activity: body weight change in pituitary gland-removed rats. More on the design: species or system Sprague-Dawley rats. The settings on record: subcutaneous 5 μg per rat every day (Eutropin), day 7. On the procedure: Pituitary gland-removed Sprague-Dawley rats were used as experimental animals and divided into three groups of seven. To the hypophysectomyzed Sprague-Dawley rats, the human growth hormone/alpha-1 antitrypsin monovariant fusion [T109: α1AT(P357N)/hGH] prepared in Example 2 and human growth hormone (Eutropin, LG Life Sciences Ltd, Korea) were subcutaneously injected at doses of 18 μg and 5 μg per rat, respectively, every day. For a control, PBS was used. The rats were weighed every day after being injected.

Data set [3] in a line: Pharmacokinetics of IFN-α and IFN-α/alpha-1 antitrypsin monovariant fusion (serum ELISA). The data set is classed as in vivo. The settings on record: Sprague-Dawley rats, subcutaneous, 60 μg/kg (Intermax alpha control). On the procedure: The enzyme immunoassay of human interferon alpha (IFN-α) and human interferon alpha/alpha-1 antitrypsin monovariant fusion was conducted with Human IFN-α Matched Antibody Pairs for ELISA (bender Medsystems, Austria). The IFN-α antibody (10 μg/ml) was allowed to adhere to 96-well plates and blocked as described in Test Example 1-1. A dilution of the sample was reacted with the antibody at room temperature for 2 hrs with shaking. An anti-IFN-α-HRP conjugate was plated in an amount of 50 μL/well and reacted with the antibody at room temperature for 2 hrs with shaking. Subsequent processes were conducted in the same manner as in Test Example 1-1.
Sprague-Dawley rats were used as experimental animals and five rats were assigned to each test group. The human interferon alpha/alpha-1 antitrypsin monovariant fusion [T502: α1AT(P357N)/IFN-α] prepared in Example 4 was subcutaneously injected at a dose of 200 μg/kg into Sprague-Dawley rats of one test group, 0, 0.33, 1, 2, 5, 8, 12, 18, 24, 30, 48, 72 and 96 hrs after which blood samples were taken, and centrifuged to obtain sera. […] Each sample was analyzed in the same manner as the enzyme immunoassay of Test Example 1.

For data set [4] the following is noted: Weweres et al. 1987; cited from earlier work.
A short description of data set [5]: Pharmacokinetics of G-CSF and G-CSF/alpha-1 antitrypsin variant fusions (serum ELISA). The data set is classed as in vivo. The settings on record: Sprague-Dawley rats, subcutaneous. On the procedure:
The same procedure as in Test Example 1 was repeated with the exception that an anti-granulocyte colony-stimulating factor (G-CSF) monoclonal antibody (RND systems, U.S.A.), instead of the anti-human growth hormone antibody, was diluted to a concentration of 1-5 μg/mL and granulocyte colony-stimulating factor polyclonal antibodies-biotin conjugate (RND systems, U.S.A.), instead of the human growth hormone monoclonal antibody-biotin conjugate, was used.
Sprague-Dawley rats were used as experimental animals and three of them were administered with granulocyte colony-stimulating factor while five rats were assigned to each of the fusion-administered groups. The granulocyte colony-stimulating factor/alpha-1 antitrypsin divariant fusion [T602S: α1AT(P357N, C232S)/G-CSF], and granulocyte colony-stimulating factor/alpha-1 antitrypsin trivariant fusion [T602ST: α1AT(P357N, C232S, S359T)/G-CSF], all prepared in Examples 5-6, were subcutaneously injected at a dose of 340 μg/kg into respective groups of Sprague-Dawley rats. Blood samples were taken at 0, 1, 2, 4, 8, 12, 16, 24, 30, and 48 hrs after the injection, and centrifuged to obtain sera. For a control, Filgrastim (Gracin, Jeil Pharmaceutical Co. Ltd. Korea), a commercially available granulocyte colony-stimulating factor, was subcutaneously injected at a dose of 100 μg/kg. Blood samples were taken at 0, 1, 2, 4, 8, 12, 18, 24, 30 and 48 hrs after the injection, and centrifuged to obtain sera. Each sample was analyzed in the same manner as the enzyme immunoassay of Test Example 1.

The subject of the next data set is leucocytes. Briefly: In vivo activity: changes in leucocyte level. The following applies: Sprague-Dawley rats. On the procedure: Sprague-Dawley rats were used as experimental animals and divided into five groups of five each. To the Sprague-Dawley rats, the granulocyte colony-stimulating factor/alpha-1 antitrypsin divariant fusion [T602S: α1AT(P357N, C232S)/G-CSF] prepared in Example 5 was subcutaneously injected at doses of 340 μg/kg and 1,700 μg/kg. To another groups of rats, the granulocyte colony-stimulating factor/alpha-1 antitrypsin trivariant fusion [T602ST: α1AT(P357N, C232S, S359T)/G-CSF] prepared in Example 6 and the granulocyte colony-stimulating factor Filgrastim (Gracin, Jell Pharmaceutical Co. Ltd. Korea) were subcutaneously injected at doses of 1,700 μg/kg and 100 μg/kg, respectively. Blood samples were taken from the tail on 3 days before experiment and on 1, 2, 3, 4 and 5 days after the injection and leucocytes were counted using Hematology Analyzer (Pentra 120).

Data set [6] concerns Murine myeloblastic NFS-60 cells. Put plainly: In vitro activity in NFS-60 cells (MTS method). The data set is classed as cell-based. On the procedure:
The rat lymphoma cell line (NB2 cell) was maintained in RPMI1640 supplemented with 10% HS (Horse serum), 10% FBS, 2-mercaptoethanol and antibiotics at 37° C. under a 5% CO2 condition. For 24 hrs before experiment, NB2 cells were incubated in RPMI 1640 supplemented with 10% HS. Thereafter, the NB2 cells were washed once with 1×DPBS (Dulbecco's Phosphate Buffered Saline), and plated at a density of 2×10^4 cells/100 μL/well in 5% HS-supplemented RPMI 1640 in 96-well plates (Corning, U.S.A.) with final volume of 100 μL. A series of concentrations of the samples were added in an amount of 20 μL to each well of the 96-well plates, followed by incubation at 37° C. for 48 hrs under a 5% CO2 condition. Subsequently, 20 μL of an MTS solution (Promega, U.S.A.) was added to each well of the 96-well plates and allowed to react at 37° C. for 3 hrs under a 5% CO2 condition. The reaction was terminated by adding 20 μL of 10% SDS (sodium dodecyl sulfate) to each well. Absorbance was measured at 490 nm using a VersaMax microplate reader (Molecular Device, U.S.A.).
Murine myeloblastic NFS-60 cells were incubated in RPMI 1640 supplemented with 10% FBS, mouse IL-3 and antibiotics at 37° C. under a 5% CO2 condition. The absorbance of the cells was measured at 490 nm in the same manner as in Test Example 4-1.
(In general: Tetrazolium dyes change colour on reduction, which living cells bring about.)

The term Tmax denotes the time at which the peak concentration occurs. In the case of “human growth hormone [reference compound]”, in data set [1], the Tmax was found to be 1 h and the “serum half-life (t1/2)” value was 0.8 h. Besides, in data set [2], the weight gain result is given as “about 10.2%”.

In the case of “human interferon alpha [reference compound]”, in data set [3], the Tmax amounted to 1.4 h and the “serum half-life (t1/2)” value turned out to be 3.4 h.

alpha-1 antitrypsin: the in vivo half-life in data set [4] was 120 to 140 h.

B1: granulocyte colony-stimulating factor/alpha-1 antitrypsin divariant fusion (protein)
chain: EDPQGDAAQKTDTSHHDQDHPTFNKITPNLAEFAFSLYRQLAHQSNSTNIFFSPVSIATAFAMLSLGTKADTHDEILEGLNFNLTEIPEAQIHEGFQELLRTLNQPDSQLQLTTGNGLFLSEGLKLVDKFLEDVKKLYHSEAFTVNFGDTEEAKKQINDYVEKGTQGKIVDLVKELDRDTVFALVNYIFFKGKWERPFEVKDTEEEDFHVDQVTTVKVPMMKRLGMFNIQHSKKLSSWVLLMKYLGNATAIFFLPDEGKLQHLENELTHDIITKFLENEDRRSASLHLPKLSITGTYDLKSVLGQLGITKVFSNGADLSGVTEEAPLKLSKAVHKAVLTIDEKGTEAAGAMFLEAINMSIPPEVKFNKPFVFLMIDQNTKSPLFMGKVVNPTQKGGGGSTPLGPASSLPQSFLLKCLEQVRKIQGDGAALQEKLCATYKLCHPEELVLLGHSLGIPWAPLSSCPSQALQLAGCLSQLHSGLFLYQGLLQALEGISPELGPTLDTLQLDVADFATTIWQQMEELGMAPALQPTQGAMPAFASAFQRRAGGVLVASHLQSFLEVSYRVLRHLAQP
modifications: T602S [alpha-1AT(P357N, C232S)/G-CSF]
notes: G-CSF fused to C-terminus of alpha-1 antitrypsin divariant 2 P357N, C232S
In general, EC50 refers to the midpoint of the concentration-response curve. Low values mean greater potency, high ones weaker potency. For the molecule B1, in data set [5] (340 μg/kg), the time to peak (Tmax) is 13.6 h and the “serum half-life (t1/2)” value was 5.1 h. In addition, in the data set with leucocytes (subcutaneous, 340 μg/kg), the “leucocyte count time course” value was “peak level on Day 2 and then decrease from Day 3”. Besides, the “leucocyte count time course” value in the data set on leucocytes (subcutaneous, 1,700 μg/kg) was “remained high until Day 3 and started to decrease on Day 4”. The molecule further returned an EC50 in data set [6] of 78.1 pM.

B2: granulocyte colony-stimulating factor/alpha-1 antitrypsin trivariant fusion (protein)
chain: B1 chain with S359T
modifications: T602ST [alpha-1AT(P357N, C232S, S359T)/G-CSF]
notes: G-CSF fused to C-terminus of alpha-1 antitrypsin trivariant P357N, C232S, S359T
Take B2: in data set [5] (340 μg/kg), the Tmax worked out at 16 h and the “serum half-life (t1/2)” value turned out to be 4.5 h. Moreover, in the data set with leucocytes (subcutaneous, 1,700 μg/kg), the “leucocyte count time course” value was “remained high until Day 3 and started to decrease on Day 4”. In data set [6], this molecule gave an EC50 of 97.6 pM.

B3: Filgrastim (protein, chains of the INN, looked up)
chain: MTPLGPASSLPQSFLLKCLEQVRKIQGDGAALQEKLCATYKLCHPEELVLLGHSLGIPWAPLSSCPSQALQLAGCLSQLHSGLFLYQGLLQALEGISPELGPTLDTLQLDVADFATTIWQQMEELGMAPALQPTQGAMPAFASAFQRRAGGVLVASHLQSFLEVSYRVLRHLAQP
notes: Filgrastim (Gracin, Jeil Pharmaceutical), a commercially available granulocyte colony-stimulating factor
As to B3, in data set [5] (100 μg/kg (Filgrastim control)), the Tmax was 1.8 h and the “serum half-life (t1/2)” value came to 1.8 h. Further, in the data set with leucocytes (subcutaneous, 100 μg/kg), the “leucocyte count time course” value was “peak level at Day 1 and then decrease to the base line from Day 2”.
